First the molecules themselves.
B1: Nb.1 (VHH)
VHH: QVQLQESGGGLVQAGGSLRLSCAASGTISPRGVMGWYRQAPGKEREFVAAINYGGTTYYADSVKGRFTISRDNAKNTVYLQMNSLKPEDTAVYYCAVYYYINSQRKVLLYWGQGTQVTVSS
notes: nanobody selected from a synthetic yeast-display library; cloned into a modified pET28 vector; also called nanobody Nb.1
B2: BCCIPα with a Myc-tag (natural protein, human, UniProt Q9P287-2 1-322, looked up)
chain: MASRSKRRAVESGVPQPPDPPVQRDEEEEKEVENEDEDDDDSDKEKDEEDEVIDEEVNIEFEAYSLSDNDYDGIKKLLQQLFLKAPVNTAELTDLLIQQNHIGSVIKQTDVSEDSNDDMDEDEVFGFISLLNLTERKGTQCVEQIQELVLRFCEKNCEKSMVEQLDKFLNDTTKPVGLLLSERFINVPPQIALPMYQQLQKELAGAHRTNKPCGKCYFYLLISKTFVEAGKNNSKKKPSNKKKAALMFANAEEEFFYEEQGKPEVLGGPDTRRGLEPVPIQHNGGSRGQVTALVSLKAGLIQSRSTLSDFQGTFMTVGIALS
B3: BCCIPα-ΔL (residues 50 to 322 with deletions of residues 112 to 122 and 231 to 280) (domain or fragment, human, UniProt Q9P287-2 50-322, looked up)
chain: DEVIDEEVNIEFEAYSLSDNDYDGIKKLLQQLFLKAPVNTAELTDLLIQQNHIGSVIKQTDVEVFGFISLLNLTERKGTQCVEQIQELVLRFCEKNCEKSMVEQLDKFLNDTTKPVGLLLSERFINVPPQIALPMYQQLQKELAGAHRTNKPCGKCYFYLLISKTFVEAGQHNGGSRGQVTALVSLKAGLIQSRSTLSDFQGTFMTVGIALS
notes: human BCCIPα residues 50 to 322 with two loop deletions; source: E. coli BL21 (DE3), purified (Ni-NTA, on-column 3C cleavage, Resource Q); not shown: His6, N-terminal, cleaved
B4: BCCIPα-ΔS (residues 50 to 322 with deletions of residues 112 to 122, 235 to 243, and 273 to 276) (domain or fragment, human, UniProt Q9P287-2 50-322, looked up)
chain: DEVIDEEVNIEFEAYSLSDNDYDGIKKLLQQLFLKAPVNTAELTDLLIQQNHIGSVIKQTDVEVFGFISLLNLTERKGTQCVEQIQELVLRFCEKNCEKSMVEQLDKFLNDTTKPVGLLLSERFINVPPQIALPMYQQLQKELAGAHRTNKPCGKCYFYLLISKTFVEAGKNNSAALMFANAEEEFFYEEQGKPEVLGGPDTRPVPIQHNGGSRGQVTALVSLKAGLIQSRSTLSDFQGTFMTVGIALS
notes: human BCCIPα residues 50 to 322 with three loop deletions; source: E. coli BL21 (DE3), purified (Ni-NTA, on-column 3C cleavage, Resource Q); not shown: His6, N-terminal, cleaved

One assay deals with T1, FAM46C/BCCIPα-ΔS complex (human, UniProt Q5VWP2 1-391; Q9P287-2 50-322, deletions of residues 112 to 122 | deletions of residues 235 to 243 | deletions …).
T1 construct: human FAM46C (TENT5C), as m15; Avi-tagged, biotinylated FAM46C residues 15 to 350 in the nanobody screening; human BCCIPα residues 50 to 322 with three loop deletions, as m12; with Nb.1 it forms a 4:4:4 assembly of four 1:1:1 units and filaments; also called FAM46C/BCCIPα complex; FAM46C/BCCPα complex; source: E. coli BL21 (DE3), each protein purified, then mixed; not shown: His6, N-terminal, …
In words: cryo-EM structure; FAM46C/BCCIPα-ΔS/Nb.1 mixed 1:1:2, purified on Superdex 200; filament segments treated as single particles, D2 symmetry, 6.5 Å; models docked as rigid bodies. Particulars: both partners purified.

In assay [1] the target is B4. Described as above. Particulars: both partners purified.
The target in assay [2] is T2, Full-length human FAM46C with a FLAG-tag (human, UniProt Q5VWP2 1-391).
T2 sequence (looked up): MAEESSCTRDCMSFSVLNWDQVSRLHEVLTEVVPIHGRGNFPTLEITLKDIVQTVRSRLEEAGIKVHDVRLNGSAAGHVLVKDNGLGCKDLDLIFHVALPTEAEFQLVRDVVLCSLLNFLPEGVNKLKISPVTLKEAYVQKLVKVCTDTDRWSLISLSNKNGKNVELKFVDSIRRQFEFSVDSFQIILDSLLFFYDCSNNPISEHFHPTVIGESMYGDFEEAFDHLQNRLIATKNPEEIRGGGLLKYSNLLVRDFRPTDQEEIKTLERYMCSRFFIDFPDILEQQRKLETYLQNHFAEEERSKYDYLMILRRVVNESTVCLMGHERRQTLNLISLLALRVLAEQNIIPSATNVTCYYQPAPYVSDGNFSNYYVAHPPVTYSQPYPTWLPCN
Nature of the assay: cell-based or functional assay.

Assay [3] has as its target T3, Full-length human FAM46A with a FLAG-tag (human, UniProt Q96IP4 1-442).
T3 sequence (looked up): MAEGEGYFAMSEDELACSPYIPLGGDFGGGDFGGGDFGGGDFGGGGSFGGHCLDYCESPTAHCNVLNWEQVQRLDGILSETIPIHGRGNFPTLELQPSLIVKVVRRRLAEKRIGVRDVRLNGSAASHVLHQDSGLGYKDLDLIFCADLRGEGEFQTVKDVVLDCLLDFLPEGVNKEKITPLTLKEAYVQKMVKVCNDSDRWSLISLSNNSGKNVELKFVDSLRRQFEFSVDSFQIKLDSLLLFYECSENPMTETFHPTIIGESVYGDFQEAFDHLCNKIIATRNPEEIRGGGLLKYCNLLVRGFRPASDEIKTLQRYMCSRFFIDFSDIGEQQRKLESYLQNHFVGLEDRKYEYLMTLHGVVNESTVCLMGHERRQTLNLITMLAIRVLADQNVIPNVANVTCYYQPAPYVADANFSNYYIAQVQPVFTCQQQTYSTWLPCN
In words: cell-based or functional assay.

In assay [4] the target is T4, FAM46A (residues 64 to 394) (human, UniProt Q96IP4 64-394).
T4 construct: human FAM46A (TENT5A) residues 64 to 394; also called TENT5A; source: E. coli BL21 (DE3), purified (Ni-NTA, on-column 3C cleavage, Resource Q); not shown: His6, N-terminal, cleaved
T4 sequence (looked up): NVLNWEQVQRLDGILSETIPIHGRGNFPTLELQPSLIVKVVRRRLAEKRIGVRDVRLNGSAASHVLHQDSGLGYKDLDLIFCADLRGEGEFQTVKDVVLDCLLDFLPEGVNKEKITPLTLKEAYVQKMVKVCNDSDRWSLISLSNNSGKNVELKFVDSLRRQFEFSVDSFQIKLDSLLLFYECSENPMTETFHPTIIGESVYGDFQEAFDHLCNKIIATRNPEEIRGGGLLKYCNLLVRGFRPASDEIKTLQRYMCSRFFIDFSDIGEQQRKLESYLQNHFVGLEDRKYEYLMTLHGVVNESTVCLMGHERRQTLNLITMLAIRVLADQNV
In words: crystal structure; FAM46A (64-394) with BCCIPα-ΔS (3.5 Å) or BCCIPα-ΔL (3.2 Å); complexes mixed 1:1 and purified on Superdex 200. Particulars: both partners purified.

What is called stoichiometry N is the number of molecules, sites or subunits per partner or assembly. For B1, in the assay with FAM46C/BCCIPα-ΔS complex, the “stoichiometry N” value turned out to be 1. The binding result in assay [1] was “binds”. B2: the “mean nucleus/cytoplasm intensity ratio of FAM46C in U2OS cells coexpressing BCCIPα (immunofluorescence; 1.94 without BCCIPα)” value in assay [2] is 3.04. Besides, the “mean nucleus/cytoplasm intensity ratio of FAM46A in U2OS cells coexpressing BCCIPα (immunofluorescence; 1.90 without BCCIPα)” value in assay [3] came out at 2.85. For B3, in assay [4], the binding result is “binds”. For the molecule B4, the binding result in assay [4] is recorded as “binds”.

The values above are taken from paper PMC10075960, “Inhibition of FAM46/TENT5 activity by BCCIPα adopting a unique fold” (Science Advances, 2023).
